Assay results from article PMC10491584, “Structural convergence endows nuclear transport receptor Kap114p with a transcriptional repressor function toward TATA-binding protein” (Nature Communications, 2023).

Key:
Kap114p (Y370A) = molecular target: T1, Kap114p (Y370A) (S. cerevisiae, UniProt P53067 1-1004, Y370A); test: ITC; MicroCal iTC200, 25 °C, 20 mM HEPES pH 7.4, 150 mM NaCl; high concentration: 50 µM wild type or mutant Kap114p in the sample cell, 500 µM wild type or mutant yTBPC in the syringe; triplicate; conditions: both partners purified
T1 construct: Kap114p, S. cerevisiae, full length with Y370A; also called GST-Kap114p (Y370A); source: E. coli Rosetta, purified (GST resin, MonoQ, Superdex 200)
T1 sequence (looked up): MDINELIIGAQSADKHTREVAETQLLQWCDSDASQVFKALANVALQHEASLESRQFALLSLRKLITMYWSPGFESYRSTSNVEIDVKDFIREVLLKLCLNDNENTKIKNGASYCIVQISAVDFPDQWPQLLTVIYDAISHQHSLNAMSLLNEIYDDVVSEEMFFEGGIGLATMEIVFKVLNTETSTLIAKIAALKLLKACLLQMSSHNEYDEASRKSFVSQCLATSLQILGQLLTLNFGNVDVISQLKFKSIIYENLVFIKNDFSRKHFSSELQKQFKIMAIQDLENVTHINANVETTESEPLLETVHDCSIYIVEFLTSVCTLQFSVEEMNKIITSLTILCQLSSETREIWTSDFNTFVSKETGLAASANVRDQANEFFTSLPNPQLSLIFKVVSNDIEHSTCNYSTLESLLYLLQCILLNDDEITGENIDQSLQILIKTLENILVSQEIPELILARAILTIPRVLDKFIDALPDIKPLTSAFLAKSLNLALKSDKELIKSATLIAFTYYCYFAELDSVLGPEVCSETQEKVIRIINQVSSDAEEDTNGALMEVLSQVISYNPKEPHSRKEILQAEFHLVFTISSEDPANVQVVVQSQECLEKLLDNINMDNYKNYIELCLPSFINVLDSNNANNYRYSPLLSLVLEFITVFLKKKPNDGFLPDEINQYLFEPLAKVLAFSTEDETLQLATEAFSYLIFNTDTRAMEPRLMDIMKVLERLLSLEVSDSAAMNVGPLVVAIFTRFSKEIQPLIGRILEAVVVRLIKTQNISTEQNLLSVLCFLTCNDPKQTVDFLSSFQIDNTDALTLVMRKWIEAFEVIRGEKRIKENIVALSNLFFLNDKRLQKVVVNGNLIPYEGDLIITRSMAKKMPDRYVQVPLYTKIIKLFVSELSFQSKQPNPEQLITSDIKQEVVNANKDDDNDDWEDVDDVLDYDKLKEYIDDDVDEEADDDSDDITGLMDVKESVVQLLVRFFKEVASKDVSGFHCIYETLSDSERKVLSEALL

Kap114p (Q597A) = molecular target: T2, Kap114p (Q597A) (S. cerevisiae, UniProt P53067 1-1004, Q597A); test: as above; conditions: both partners purified
T2 construct: Kap114p, S. cerevisiae, full length with Q597A; also called GST-Kap114p (Q597); source: E. coli Rosetta, purified (GST resin, MonoQ, Superdex 200)
T2 sequence (looked up): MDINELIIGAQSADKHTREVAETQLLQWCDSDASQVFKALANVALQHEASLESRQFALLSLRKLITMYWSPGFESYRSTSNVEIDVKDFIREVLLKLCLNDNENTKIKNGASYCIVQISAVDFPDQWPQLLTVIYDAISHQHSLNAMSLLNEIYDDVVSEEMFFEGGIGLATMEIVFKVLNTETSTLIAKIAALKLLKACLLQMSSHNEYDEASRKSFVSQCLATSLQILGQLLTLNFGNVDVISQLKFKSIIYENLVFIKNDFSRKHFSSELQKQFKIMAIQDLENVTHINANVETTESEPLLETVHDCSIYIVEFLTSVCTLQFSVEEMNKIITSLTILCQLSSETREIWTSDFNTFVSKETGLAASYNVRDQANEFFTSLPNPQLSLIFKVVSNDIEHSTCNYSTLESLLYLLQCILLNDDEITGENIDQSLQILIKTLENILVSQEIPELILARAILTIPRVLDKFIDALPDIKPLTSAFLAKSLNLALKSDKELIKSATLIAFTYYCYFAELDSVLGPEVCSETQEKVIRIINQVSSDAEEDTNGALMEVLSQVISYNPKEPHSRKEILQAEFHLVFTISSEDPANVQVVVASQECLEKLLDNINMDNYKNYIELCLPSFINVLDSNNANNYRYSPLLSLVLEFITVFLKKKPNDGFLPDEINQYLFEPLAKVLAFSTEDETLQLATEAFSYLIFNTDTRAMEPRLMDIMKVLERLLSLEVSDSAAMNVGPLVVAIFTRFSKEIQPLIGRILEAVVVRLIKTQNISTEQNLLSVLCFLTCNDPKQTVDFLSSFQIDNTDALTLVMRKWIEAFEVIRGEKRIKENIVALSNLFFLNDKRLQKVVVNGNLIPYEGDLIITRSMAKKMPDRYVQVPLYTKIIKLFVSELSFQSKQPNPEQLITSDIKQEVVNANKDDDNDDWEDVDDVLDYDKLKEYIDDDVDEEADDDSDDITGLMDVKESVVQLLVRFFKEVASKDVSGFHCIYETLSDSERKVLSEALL

Kd (Kap114p (Y370A)): 20 nM
Kd (Kap114p (Q597A)): 7.4 nM
B1: yTBP^C wild type (core domain of yeast TATA-box binding protein, a.a. 61-240) (domain or fragment, S. cerevisiae, UniProt P13393 61-240, looked up)
chain: SGIVPTLQNIVATVTLGCRLDLKTVALHARNAEYNPKRFAAVIMRIREPKTTALIFASGKMVVTGAKSEDDSKLASRKYARIIQKIGFAAKFTDFKIQNIVGSCDVKFPIRLEGLAFSHGTFSSYEPELFPGLIYRMVKPKIVLLIFVSGKIVLTGAKQREEIYQAFEAIYPVLSEFRKM
notes: modified pET28a, 6xHis tag followed by a PreScission site; also called yTBPC WT; His-yTBP (61-240); source: E. coli Rosetta, purified (Ni-NTA, HiTrap SP, Superdex 75); not shown: His6, N-terminal, cleaved
